Tests used:
[1] = biological target: Full-length L. rhamnosus GG SpaB (GG-SpaBFL) protein (residues 33-205) (Lactobacillus rhamnosus GG); experiment: BLI; GG-SpaB protein (10 uM) immobilised on aminopropylsilane (APS) biosensors; mucin Type II (~19.5-312 nM) as analyte; PBS (10 mM sodium phosphate pH 7.4, 137 mM NaCl, 2.7 mM KCl), 30 C; ~600 s association, ~900 s dissociation; 1:1 binding fit; in duplicate
[2] = biological target: Truncated L. rhamnosus GG SpaB (GG-SpaBC-trun) protein (residues 31-184) (Lactobacillus rhamnosus GG); experiment: as above
[3] = biological target: Full-length L. rhamnosus GG SpaB (GG-SpaBFL) protein (residues 33-205) (Lactobacillus rhamnosus GG); experiment: BLI; conditions: group
[4] = biological target: Truncated GG-SpaB (GG-SpaB_(C-trun)) protein (residues 31-184) (Lactobacillus rhamnosus GG); experiment: BLI; conditions: group

## porcine gastric mucin (Type II) (Sigma-Aldrich)
[1]
  Kd: 0.306 nM
  koff: 1.09e-05 s⁻¹
  kon: 35300 M⁻¹ s⁻¹
[2]
  Kd: 2.55 nM
  koff: 6.86e-05 s⁻¹
  kon: 26300 M⁻¹ s⁻¹

## porcine gastric mucin (Type II)
[3]
  Kd: 0.3 nM
[4]
  Kd: 2.6 nM
